From US20090291081A1 (AbbVie / Abbott, published 2009)
Several values for one entry are separate records, joined by “and”; a condition that tells them apart may be missing. Identical values can stand only once.

Experiments:
human IL-1β [1] = molecular target: T1, human IL-1β (human, UniProt P01584 117-269); assay: cell-based or functional assay
human IL-1β [2] = molecular target: T1, human IL-1β; assay: IC50 column of Table 63; receptor binding assay presumed
human IL-1β [3] = molecular target: human IL-1β (human, UniProt P01584 117-269); assay: cell-based or functional assay; remark: listed apart in the source

Binder	ND50 (human IL-1β [1]) [nM]	IC50 (human IL-1β [2]) [nM]	other results
ABT2-42 (other) VL: DIQMTQSPSSLSASVGDRVTITCRASQYIEKWLTWYQQKPGKAPTLLIYRGSLLQSGVPSRFSGSGSGTDFTLTISSLQPEDFATYYCQQTEYWPFTFGQGTKVEIKR	–	770	–
ABT2-46 (other) VL: DIQMTQSPSSLSASVGDRVTITCRASQSIIEWLSWYQQKPGKAPKLLIYRTSVLQSGVPSRFSGSGSGTDFTLTISSLQPEDFATYYCQQNEFWPFTFGQGTKVEIKR	–	390	–
ABT2-35 (other) VH: EVQLLESGGGLVQPGGSLRLSCAASGFTFGEYDMAWVRQAPGKGLEWVSVIYAWGTSTYYADSVKGRFTISRDNSKNTLYLQMNSLRAEDTAVYYCAKMGGGLVSLPQSKFDYWGQGTLVTVSS	> 10000	–	–
ABT2-108/ABT1-141-25 hu IgG1/K wt (bispecific antibody, V domains shown) VH: EVQLLESGGGLVQPGGSLRLSCAASGFTFAEYTMMWVRQAPGKGLEWVSRIGQDGKNTYYADSVKGRFTISRDNSKNTLYLQMNSLRAEDTAVYYCAKYTGRVGVHHLFDYWGQGTLVTSS VL: DIQMTQSPSSLSASVGDRVTITCRASQWIQKQLAWYQQKPGKAPKLLIYSSSYLQSGVPSRFSGSGSGTDFTLTISSLQPEDFATYYCQQHLRVPMTFGQGTKVEIKR	–	–	IL-1β IC50 (human IL-1β [3]): 150 nM
ABT2-65-17/ABT1-122-511 hu IgG1/K wt (bispecific antibody, V domains shown) VH: EVQLLESGGGLVQPGGSLRLSCVASGFTFEDYQMGWVRQAPGKGLEWVSSISAMGNRTYYADSVKGRFTISRDDSKNTLYLQMNSLRAEDTAVYYCAQNLVRLGRSRWMFDYWGQGTLVTVSS VL: DIQMTQSPSSLSASVGDRVTITCRASQPIWTELNWYQQKPGKAPKLLIYGSSSLQRGVPSRFSGSGSGTDFTLTISSLQPEDFATYYCKQFAYFPATFGQGTKVEIKR	–	–	IL-1β IC50 (human IL-1β [3]): 0.1 nM and 0.16 nM
ABT2-65-512 (other) VH: EVQLLESGGGLVQPGGSLRLSCVASGFTFEDYQMGWVHQAPGKGLEWVSSISAMGNRTYYADSVKGRFTISRDDSKNTLYLQMNSLRAEDTAVYYCAQNLVRLGRSRWMFDYWGQGTLVTVSS	3	–	–
ABT2-65-502 (other) VH: EVQLLESGGGLVQPGGSLRLSCVASGFTFEDYQMGWVRQAPGKGLEWVSSVSAMGNRTYYADSVKGRFTISRDGSKNTLYLQMNSLRAEDTAVYYCAQNLVRLGRSRWMFDYWGQGTLVTVSS	2	–	–
ABT2-108-620x/ABT1-122-513 huIgG1/K w (bispecific antibody, V domains shown) VH: EVQLLESGGGLVQPGGSLRLSCAASGFTFAEESWMWVRQAPGKGLEWVSRIGQDGKNTYYREDVKGRFTISRDNSKNTLYLQMNSLRAEDTAVYYCAKYTGRIMGHHLFDYWGQGTLVTVSS VL: DIQMTQSPSSLSASVGDRVTITCRASQPIWTELNWYQQKPGKAPKLLIYGSGSRQRGVPSRFSGSGSGTDFTLTISSLQPEDFATYYCKQFAYFPATFGQGTKVEIKR	–	–	IL-1β IC50 (human IL-1β [3]): 0.01 nM and 0.009 nM
ABT2-65-35 (other) VH: EVQLLESGGGLVQPGGSLRLSCVASGFTFEDYQMGWVRQAPGKGLEWVSSISAMGNRTYYADSVKGRFTISRDDSKNTLYLQMNSLRAEDTAVYYCAQNLVRLRRSRWMFDYWGQGTLVTVSS	4	–	–
ABT2-65-163 (other) VH: EVQLLESGGGLVQPGGSLRLSCVASGFTFEDYQMGWVRQAPGKGLEWVSSISAMGGRTYYADSVKGRFTISRDDSKNTLYLQMNSLRAEDTAVYYCAQNLVRLGRSRWMFDYWGQGTLVTVSS	2	–	–
ABT2-65-160 (other) VH: EVQLLESGGGLVQPGGSLRLSCVASGFTFEDYQMGWVRQAPGKGLEWVSSISAMGPRTYYADSVKGRFTISRDDSKNTLYLQMNSLRAEDTAVYYCAQNLVRLGRSRWMFDYWGQGTLVTVSS	2	–	–
ABT2-65-176 (other, VH dAb) VH: EVQLLESGGGLVQPGGSLRLSCAASGFTFEDYQMGWVRQAPGKGLEWVSSISAMGSRTYYADSVKGRFTISRDDSKNTLYLQMNSLRAEDTAVYYCAENLVKVARGRWMFDYWGQGTLVTVSS	–	5	–
ABT2-65-174 (other, VH dAb) VH: EVQLLESGGGLVQPGGSLRLSCAASGFTFEDYQMGWVRQAPGKGLEWVSSISAMGNRTYYADSVKGRFTISRDDSKNTLYLQMNSLRAEDTAVYYCAQNLVRFKKTQWMFDYWGQGTLVTVSS	–	10	–
ABT2-65-177 (other, VH dAb) VH: EVQLLESGGGLVQPGGSLRLSCAASGFTFEDYQMGWVRQAPGKGLEWVSSISAMGNRTYYADSVKGRFTISRDDSKNTLYLQMNSLRAEDTAVYYCAQNLVRFKVLQWMFDYWGQGTLVTVSS	–	20	–
ABT2-65-171 (other, VH dAb) VH: EVQLLESGGGLVQPGGSLRLSCAASGFTFEDYQMGWVRQAPGKGLEWVSSISAMGNRTYYADSVKGRFTISRDDSKNTLYLQMNSLRAEDTAVYYCAQNLVRLNRSQWMFDYWGQGTLVTVSS	–	7.5	–
ABT2-65-175 (other, VH dAb) VH: EVQLLESGGGLVQPGGSLRLSCAASGFTFEDYQMGWVRQAPGKGLEWVSSISAMGNRTYYADSVKGRFTISRDDSKNTLYLQMNSLRAEDTAVYYCAENLVRIAGDRWMFDYWGQGTLVTVSS	–	10	–
ABT2-65-172 (other, VH dAb) VH: EVQLLESGGGLVQPGGSLRLSCAASGFTFEDYQMGWVRQAPGKGLEWVSSISAMGNRTYYADSVKGRFTISRDDSKNTLYLQMNSLRAEDTAVYYCAENLVRWKKGSWMFDYWGQGTLVTVSS	–	6	–
ABT2-6 (other) VL: DIQMTQSPSSLSASVGDRVTITCRASQSIGLLLTWYQQKPGKAPKLLIYMASQLQSGVPSRFSGSGSGTDFTLTISSLQPEDFATYYCQQWHRPPSTFGQGTKVEIKR	> 20000	–	–
ABT2-8 (other) VL: DIQMTQSPSSLSASVGDRVTITCRASQSIKSMLAWYQQKPGKAPKLLIYMASNLQSGVPSRFSGSGSGTDFTLTISSLQPEDFATYYCQQTIVKPSTFGQGTKVEIKR	> 20000	–	–
ABT2-66 (other) VH: EVQLLESGGGLVQPGGSLRLSCAASGFTFSHYTMAWVRQAPGKGLEWVSTIGSSGNSTYYADSVKGRFTISRDNSKNTLYLQMNSLRAEDTAVYYCAQMRGPYYTFDYRGQGTLVTVSS	> 10000	–	–
ABT2-10 (other) VH: EVQLLESGGGLVQPGGSLRLSCTASGFTFNRYNMAWARQAPGKGLEWVSEIDLKGSQTYYADSVKGRFTISRDNSKNTLYLQMNSLRAEDTAVYYCAKVSISAYHMFDYWGQGTLVTVSS	6000	–	–
ABT2-64 (other) VH: EVQLLESGGGLVQPGGSLRLSCAASGFTFDDYGMGWVRQAPGKGLEWVSLIYPFGGGTYYADSVKGRFTISRDNSKNTLYLQMNSLRAEDTAVYYCAKVTQTGKFDYWGQGTLVTVSS	> 10000	–	–
ABT2-65-10 (other, VH dAb) VH: VQLSESGGGLVQPGGSLRLSCAASGFTFTEYNMGWVRQAPGKGLEWVSSISAMGNRTYYADSVKGRFTISRDDSKNTLYLQMNSLRAEDTAVYYCANNLVRTQSKMWMFDYWGQGTLVTVSS	–	20	–
ABT2-11 (other) VH: EVQLLESGGGLVQPGGSLRLSCAASGFTFDNYSMTWVRQAPGKGLEWVSAISGSGGSTYYADSVKGRFTISRDNSKNTLYLQMNSLRAEDTAVYYCAKCIDRLPCLFDYWGQGTLVTVSS	> 10000	–	–

Continued, in another order:

ND50 (human IL-1β [1]) [nM]	IC50 (human IL-1β [2]) [nM]	Binder	other results
> 10000	–	ABT2-39 (other) VH: EVQLLESGGGLVQPGGSLRLSCAASGFTFRAYDMGWVRQAPGKGLEWVSVIYAWGTSTYYADSVKGRFTISRDNSKNTLYLQMNSLRAEDTAVYYCAKIDRDASLPTGEGFDYWGQGTLVTVSS	–
–	70	ABT2-108 (other) VH: EVQLLESGGGLVQPGGSLRLSCAASGFTFAEYTMMWVRQAPGKGLEWVSRIGQDGKNTYYADSVKGRFTISRDNSKNTLYLQMNSLRAEDTAVYYCAKYTGRVGVHHLFDYWGQGTLVTSS	–
20	–	ABT2-65-34 (other) VH: EVQLLESGGGLVQPGGSLRLSCAASGFTFEDYQMGWVRQAPGKGLEWVSSISAMGNRTYYADSVKGRFTISRDDSKNTLYLQMNSLRAEDTAVYYCAQNLVRTRSKRWMFDYWGQGTLVTVSS	–
4	–	ABT2-65-504 (other) VH: EVQLLESGGGLVQPGGSLRLSCVASGFTFEDYQMGWVRQAPGKGLERVSSVSAMGNRTHYADSVKGRFTISRDDSKNTLYLQMNSLRAGDTAVYYCAQNLVRLGRSRWMFDYWGQGTLVTVSS	–
1	–	ABT2-65-510 (other) VH: EVQLLESGGGLVQPGGSLRLSCVASGFTFEDYQMGWVRQAPGKGLEWVSSISAMGNRTYYADSVKGRFTISRDDSENTLYLQMNSLRAEDTAVYYCAQNLVRLGRSRWMFDYWGQGTLVTVSS	–
–	30	ABT2-65-173 (other, VH dAb) VH: EVQLLESGGGLVQPGGSLRLSCAASGFTFEDYQMGWVRQAPGKGLEWVSSISAMGNRTYYADSVKGRFTISRDDSKNTLYLQMNSLRAEDTAVYYCAQNLVRFRAKEWMFDYWGQGTLVTVSS	–
> 10000	–	ABT2-43 (other) VL: DIQMTQSPSSLSASVGDRVTITCRASQNIDTYLTWYQQKPGKAPRLLIYGASTLQSGVPSRFSGSGSGTDFTLTISSLQPEDFATYYCQQRAYYPTTFGQGTKVEIKR	–
> 20000	–	ABT2-7 (other) VL: DIQMTQSPSSLSASVGDRVTITCRASQSIKSGLNWYQQKPGKAPKLLIYMASQLQSGVPSRFSGSGSGTDFTLTISSLQPEDFATYYCQQWHRPPSTFGQGTKVEIKR	–
